Measurements: PMC5809688 (Molecular and Cellular Biology, 2017)

Columns and labels:
[1] = biological target: T1, wild-type p38α mitogen-activated protein kinase (UniProt P47811 1-360); experiment: ITC; ITC200 microcalorimeter (Microcal); T = 298 K; heats corrected for dilution; which partner was titrated is not stated; settings: both partners purified
T1 construct: His6 tag followed by a TEV cleavage site at the N-terminal end; also called wtp38α

p38α(T185G) = biological target: T2, p38α(T185G) (UniProt P47811 1-360, T185G); experiment: as above; settings: both partners purified
T2 construct: PCR product described as a full-length p38α harboring the desired mutation; His6 tag followed by a TEV cleavage site at the N-terminal end; also called T185G mutant; p38α(T185G) mutant kinase
T2 sequence (P47811 whole entry T185G): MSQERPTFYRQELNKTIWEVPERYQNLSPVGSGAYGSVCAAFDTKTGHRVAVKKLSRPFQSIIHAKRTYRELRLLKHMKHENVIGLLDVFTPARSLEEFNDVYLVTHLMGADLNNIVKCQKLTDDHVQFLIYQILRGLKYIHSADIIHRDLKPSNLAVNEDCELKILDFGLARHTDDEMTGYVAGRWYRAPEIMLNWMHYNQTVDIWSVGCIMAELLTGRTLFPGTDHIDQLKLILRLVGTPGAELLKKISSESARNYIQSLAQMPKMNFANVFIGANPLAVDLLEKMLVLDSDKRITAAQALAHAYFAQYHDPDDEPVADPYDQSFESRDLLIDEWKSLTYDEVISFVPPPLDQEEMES

T1 sequence (P47811 whole entry): as the sequence (P47811 whole entry T185G) above, with G185T counted along it

Kd [1]: 2900 nM
dH [1]: -13.6 kcal/mol
stoichiometry N [1]: 0.8
Kd (p38α(T185G)): 1100 nM
dH (p38α(T185G)): -9.6 kcal/mol
stoichiometry N (p38α(T185G)): 0.7
B1: TAB1(384–412) peptide (transforming growth factor β-activated protein kinase binding protein 1, residues 384 to 412) (peptide, UniProt Q15750 384-412, looked up)
peptide: GGRVYPVSVPYSSAQSTSKTSVTLSLVMP
